Laboratory results: patent US20020081623A1

Target: RANTES/eotaxin binding sites on guinea-pig eosinophils (guinea-pig)
Experiment: binding of 0.1 nM 125I-RANTES to 4x10^5 guinea-pig eosinophils without competitor

B0: 14.4%
Substance: human RANTES (from UniProt P13501 24-91) (ligand)
